{"source": "paper PMC13226650", "about": "“Non-decameric NLRP3 reveals a TGN/MTOC-distal pathway of inflammasome activation” (Nature Communications, 2026)", "proteins": {"B1": {"name": "MBP-NLRP3(Δexon3) + GSGAGG linker (natural protein, human)", "chain": "MASTRCKLARYLEDLEDVDLKKFKMHLEDYPPQKGCIPLPRGQTEKADHVDLATLMIDFNGEEKAWAMAVWIFAAINRRDLYEKAKRDEPKWGSGAGGDYRKKYRKYVRSRFQCIEDRNARLGESVSLNKRYTRLRLIKEHRSQQEREQELLAIGKTKTCESPVSPIKMELLFDPDDEHSEPVHTVVFQGAAGIGKTILARKMMLDWASGTLYQDRFDYLFYIHCREVSLVTQRSLGDLIMSCCPDPNPPIHKIVRKPSRILFLMDGFDELQGAFDEHIGPLCTDWQKAERGDILLSSLIRKKLLPEASLLITTRPVALEKLQHLLDHPRHVEILGFSEAKRKEYFFKYFSDEAQARAAFSLIQENEVLFTMCFIPLVCWIVCTGLKQQMESGKSLAQTSKTTTAVYVFFLSSLLQPRGGSQEHGLCAHLWGLCSLAADGIWNQKILFEESDLRNHGLQKADVSAFLRMNLFQKEVDCEKFYSFIHMTFQEFFAAMYYLLEEEKEGRTNVPGSRLKLPSRDVTVLLENYGKFEKGYLIFVVRFLFGLVNQERTSYLEKKLSCKISQQIRLELLKWIEVKAKAKKLQIQPSQLELFYCLYEMQEEDFVQRAMDYFPKIEINLSTRMDHMVSSFCIENCHRVESLSLGFLHNMPKEEEEEEKEGRHLDMVQCVLPSSSHAACSHGLVNSHLTSSFCRGLFSVLSTSQSLTELDLSDNSLGDPGMRVLCETLQHPGCNIRRLWLGRCGLSHECCFDISLVLSSNQKLVELDLSDNALGDFGIRLLCVGLKHLLCNLKKLWLVSCCLTSACCQDLASVLSTSHSLTRLYVGENALGDSGVAILCEKAKNPQCNLQKLGLVNSGLTSVCCSALSSVLSTNQNLTHLYLRGNTLGDKGIKLLCEGLLHPDCKLQVLELDNCNLTSHCCWDLSTLLTSSQSLRKLSLGNNDLGDLGVMMFCEVLKQQSCLLQNLGLSEMYFNYETKSALETLQEEKPELTVVFEPSW", "notes": "NLRP3, human, UniProt Q96P20, residues 3-94 (before the deleted exon 3 linker 95-134); short flexible linker that replaces residues 95-134; NLRP3, human, UniProt Q96P20, residues 135-1036 (after the deleted exon 3 linker 95-134); also called ∆95-134 + linker (GSGAGG); source: baculovirus-infected Sf9 insect cells, purified (MBP-trap, SEC on Superose 6 Increase); not shown: MBP, N-terminal, kept"}, "B2": {"name": "MBP-NLRP3(Δexon3) (natural protein, human, UniProt Q96P20 3-1036, looked up)", "chain": "MASTRCKLARYLEDLEDVDLKKFKMHLEDYPPQKGCIPLPRGQTEKADHVDLATLMIDFNGEEKAWAMAVWIFAAINRRDLYEKAKRDEPKWDYRKKYRKYVRSRFQCIEDRNARLGESVSLNKRYTRLRLIKEHRSQQEREQELLAIGKTKTCESPVSPIKMELLFDPDDEHSEPVHTVVFQGAAGIGKTILARKMMLDWASGTLYQDRFDYLFYIHCREVSLVTQRSLGDLIMSCCPDPNPPIHKIVRKPSRILFLMDGFDELQGAFDEHIGPLCTDWQKAERGDILLSSLIRKKLLPEASLLITTRPVALEKLQHLLDHPRHVEILGFSEAKRKEYFFKYFSDEAQARAAFSLIQENEVLFTMCFIPLVCWIVCTGLKQQMESGKSLAQTSKTTTAVYVFFLSSLLQPRGGSQEHGLCAHLWGLCSLAADGIWNQKILFEESDLRNHGLQKADVSAFLRMNLFQKEVDCEKFYSFIHMTFQEFFAAMYYLLEEEKEGRTNVPGSRLKLPSRDVTVLLENYGKFEKGYLIFVVRFLFGLVNQERTSYLEKKLSCKISQQIRLELLKWIEVKAKAKKLQIQPSQLELFYCLYEMQEEDFVQRAMDYFPKIEINLSTRMDHMVSSFCIENCHRVESLSLGFLHNMPKEEEEEEKEGRHLDMVQCVLPSSSHAACSHGLVNSHLTSSFCRGLFSVLSTSQSLTELDLSDNSLGDPGMRVLCETLQHPGCNIRRLWLGRCGLSHECCFDISLVLSSNQKLVELDLSDNALGDFGIRLLCVGLKHLLCNLKKLWLVSCCLTSACCQDLASVLSTSHSLTRLYVGENALGDSGVAILCEKAKNPQCNLQKLGLVNSGLTSVCCSALSSVLSTNQNLTHLYLRGNTLGDKGIKLLCEGLLHPDCKLQVLELDNCNLTSHCCWDLSTLLTSSQSLRKLSLGNNDLGDLGVMMFCEVLKQQSCLLQNLGLSEMYFNYETKSALETLQEEKPELTVVFEPSW", "notes": "NLRP3, human, UniProt Q96P20, residues 3-1036 with the linker region encoded by exon 3 (residues 95-134) deleted; a TEV site stands between MBP and NLRP3; Calculated mass of the MBP-NLRP3(Δexon3) monomer is printed as 154.8 kDa; also called MBP-NLRP3 (∆95-134); source: baculovirus-infected Sf9 insect cells, purified (MBP-trap, SEC on Superose 6 Increase); not shown: MBP, N-terminal, kept"}}, "key": {"[1]": {"target": "the molecule itself", "test": "SEC + other: negative-stain EM; Superose 6 Increase 10/300 GL in 50 mM HEPES pH 7.5, 150 mM NaCl, 0.5 mM TCEP, 10 mM MgCl2, 1 mM ADP; elution against a gel filtration standard; SEC fractions of peak 2 imaged after 2 % uranyl acetate stain"}, "[2]": {"target": "the molecule itself", "test": "SEC-MALS; peak 2 fractions (C7-D4) pooled, 1.3 mg/mL; Superose 6 Increase 10/300 GL in lysis buffer (50 mM HEPES pH 7.5, 150 mM NaCl, 0.5 mM TCEP, 10 mM MgCl2, 1 mM ADP); 0.5 mL/min"}}}
{"protein": "B1", "values": [{"measurement": "binding result", "setting": "[1]", "result": "binds"}]}
{"protein": "B2", "values": [{"measurement": "stoichiometry N", "setting": "[2]", "result": 2}]}
